Data reported in patent US20230227406.

Molecular target: PTEN (substrate in the in vitro ubiquitination reaction) (UniProt P60484)
Sequence (P60484 whole entry): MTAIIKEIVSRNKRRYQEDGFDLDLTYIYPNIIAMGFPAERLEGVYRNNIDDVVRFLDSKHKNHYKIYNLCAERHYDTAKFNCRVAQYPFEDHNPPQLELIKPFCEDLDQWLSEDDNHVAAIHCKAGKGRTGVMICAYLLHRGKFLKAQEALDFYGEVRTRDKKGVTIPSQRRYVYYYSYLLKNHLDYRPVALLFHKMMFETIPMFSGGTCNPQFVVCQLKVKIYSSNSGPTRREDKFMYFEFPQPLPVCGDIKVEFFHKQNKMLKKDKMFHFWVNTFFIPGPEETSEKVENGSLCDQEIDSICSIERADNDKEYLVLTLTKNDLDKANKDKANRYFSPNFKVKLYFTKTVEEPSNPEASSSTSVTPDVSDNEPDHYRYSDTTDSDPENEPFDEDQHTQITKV

WWP1 ligase (recombinant, Ubiquigent #63-0034-025)
in vitro ubiquitination reaction, TMT LC-MS/MS of ubiquitin sites on PTEN: Specific ubiquitin sites on PTEN demonstrate greater occupancy (e.g., K237 and K342) when K27-only ubiquitin is used in the reaction vs wild type ubiquitin
in vitro ubiquitination reaction, western blot using an anti-ubiquitin antibody: in the presence of K27 only ubiquitin, PTEN substrate ubiquitin is preferred. PTEN is readily ubiquitinated with non-chain forming ubiquitin
